Target: PthA4-His (Xanthomonas citri subsp. citri (strain …, UniProt A0AAI8ETU3 1-1163))
Assay: EMSA; poly dI-dC; unlabeled competitor 1x-800x
Conditions: protein: recombinant; tags: His (N-terminal, pET28a); label: Cy5; blunt

B1: ProCsGRAS9 (dsDNA)
DNA 1: TATATACATACACACACACACACACACACATAT
DNA 2: ATATGTGTGTGTGTGTGTGTGTGTATGTATATA
B1: binds.

— publication PMC11907795
